Assay results taken from paper doi:10.1101/2022.01.11.475947.

Target: Fusion protein of Nipah virus (F-clamp) (Nipah virus)
Experiment: SEC

## Fusion protein of Nipah virus (F-clamp)
  stoichiometry N: 3
